From US20090181025A1 (published 2009) come the findings set out here.

Test [1] addresses T1, mouse TARM protein, isoform m1, expressed on B300.19 cells (mouse, UniProt B6A8R8 17-288).
T1 construct: In the co-immunoprecipitation the cells were solubilized in 1% digitonin; also called mTARM; mTARM-expressing cells
T1 sequence: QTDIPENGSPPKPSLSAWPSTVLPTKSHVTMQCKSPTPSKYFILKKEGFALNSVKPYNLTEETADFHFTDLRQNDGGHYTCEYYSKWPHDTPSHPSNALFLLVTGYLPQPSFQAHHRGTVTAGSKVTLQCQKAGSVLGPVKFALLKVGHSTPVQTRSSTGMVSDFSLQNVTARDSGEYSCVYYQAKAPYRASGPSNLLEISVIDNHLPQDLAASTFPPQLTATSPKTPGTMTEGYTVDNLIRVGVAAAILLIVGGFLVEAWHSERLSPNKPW
The test can be described thus: co-immunoprecipitation from B300.19 transfectants (1% digitonin lysate): anti-Flag IP, immunoblot with anti-mTARM #6. Here is the method:
B300.19 transfectants were solubilized in a cell lysis buffer containing 1% digitonin (1% digtonin/50 mM Tris-HCl (pH 7.5)/150 mM NaCl/5 mM NaF/1 mM orthovanadate/Complete™ (Roche)). Immunoprecipitation was carried out using an anti-Flag antibody, and immunoblot analysis was then carried out using anti-mTARM antibody #6.
(In general: Immunoblotting shows a protein as a band on a membrane.)

In test [2] the target is AP protein used as a negative control (human, UniProt P05187 23-511). The test can be described thus: FACS of AP protein on mTARM-L-expressing B300.19 cells, detected with anti-PLAP antibody.
For test [3], the target named is T2, CD54 endogenous in bone marrow-derived mature dendritic cells (mouse, UniProt P13597 28-537).
T2 construct: Control membrane protein in the co-immunoprecipitation; also called another cell membrane protein CD54
In words: co-immunoprecipitation from mature dendritic cells (1% digitonin lysate): anti-CD54 IP, immunoblot with anti-FcRγ chain antibody. The procedure:
Moreover, bone marrow-derived mature dendritic cells were solubilized in a cell lysis buffer containing 1% digitonin. Immunoprecipitation was carried out using rat IgG as a negative control, anti-mTARM antibody #21, an anti-CD54 antibody and an anti-FcRγ chain antibody, and immunoblot analysis was then carried out using an anti-FcRγ chain antibody.

T2 sequence (P13597 28-537 limits assumed): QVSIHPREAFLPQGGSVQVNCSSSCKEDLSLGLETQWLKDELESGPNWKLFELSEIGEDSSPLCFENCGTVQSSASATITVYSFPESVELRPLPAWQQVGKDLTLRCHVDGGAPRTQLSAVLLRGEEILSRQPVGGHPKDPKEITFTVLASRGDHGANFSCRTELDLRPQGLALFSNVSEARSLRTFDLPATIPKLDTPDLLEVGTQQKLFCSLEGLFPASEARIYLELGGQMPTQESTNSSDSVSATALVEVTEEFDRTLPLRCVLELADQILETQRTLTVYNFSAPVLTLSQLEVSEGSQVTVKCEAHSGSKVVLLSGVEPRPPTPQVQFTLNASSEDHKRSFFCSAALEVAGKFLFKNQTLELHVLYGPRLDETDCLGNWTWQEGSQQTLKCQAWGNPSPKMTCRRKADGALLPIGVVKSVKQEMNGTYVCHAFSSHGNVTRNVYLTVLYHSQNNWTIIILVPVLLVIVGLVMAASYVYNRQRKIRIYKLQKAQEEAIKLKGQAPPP
AP protein used as a negative control, sequence (P05187 23-511): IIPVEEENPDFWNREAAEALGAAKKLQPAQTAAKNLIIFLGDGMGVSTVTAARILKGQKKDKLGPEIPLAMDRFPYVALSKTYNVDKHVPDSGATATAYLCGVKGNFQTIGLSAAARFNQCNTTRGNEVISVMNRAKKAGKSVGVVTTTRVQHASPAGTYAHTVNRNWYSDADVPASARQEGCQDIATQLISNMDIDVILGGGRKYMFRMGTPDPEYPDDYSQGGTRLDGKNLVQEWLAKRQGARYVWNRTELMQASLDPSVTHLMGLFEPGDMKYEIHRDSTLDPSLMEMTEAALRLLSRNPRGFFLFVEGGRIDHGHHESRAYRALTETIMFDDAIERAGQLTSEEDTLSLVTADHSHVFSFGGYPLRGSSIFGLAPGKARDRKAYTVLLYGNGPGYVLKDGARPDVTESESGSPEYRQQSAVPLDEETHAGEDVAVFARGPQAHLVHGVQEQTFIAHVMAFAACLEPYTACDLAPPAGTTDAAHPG

B1: Flag tagged DAP10 expressed in B300.19 transfectants (other, UniProt Q9QUJ0 18-79, looked up)
chain: SQTSAGSCSGCGTLSLPLLAGLVAADAVMSLLIVGVVFVCMRPHGRPAQEDGRVYINMPGRG
notes: GenBank AF072846 is printed; The fragment limits are set only by the primers; not shown: N-terminal Flag tag from vector pMXII IRES-Puro
Take B1: the binding result in test [1] is reported as “no binding”.

B2: mouse TARM-L (TARM ligand) expressed on B300.19 cells (ligand)
chain: LEISADAHVRGYVGEKIKLKCTFKSSSDVTDKLTIDWTYRPPSSSRTESIFHYQSFQYPTTAGTFRDRISWAGNVYKGDASISISNPTLKDNGTFSCAVKNPPDVYHNIPLTELTVTERGFGTMLSSVALLSILVFVPSAVVVILLLVRMGRKATGVQKRSRSGYKKSSIEVSDDTDQEDSNDCMTRLCVRCAECLDSDYEEEAY
notes: also called mTARM-L; mTARM-L candidate
Regarding B2, the binding result in test [2] is “no binding (tested: 30 µg/ml (method of Example 5))”.

B3: FcRγ chain endogenous in bone marrow-derived mature dendritic cells (other, mouse, UniProt P20491 19-86, looked up)
chain: LGEPQLCYILDAVLFLYGIVLTLLYCRLKIQVRKAAIASREKADAVYTGLNTRSQETYETLKHEKPPQ
notes: Native protein from lysate of mouse dendritic cells
Regarding B3, in test [3], the binding result is reported as “no binding”.

B4: Flag tagged DAP12 expressed in B300.19 transfectants (other, UniProt O54885 22-114, looked up)
chain: LSPVQAQSDTFPRCDCSSVSPGVLAGIVLGDLVLTLLIALAVYSLGRLVSRGQGTAEGTRKQHIAETESPYQELQGQRPEVYSDLNTQRQYYR
notes: GenBank NM-011662 is printed; The fragment limits are set only by the primers; not shown: N-terminal Flag tag from vector pMXII IRES-Puro
As to B4, the binding result in test [1] is “no binding”.
